Experimental findings from US20250352661A1 (MYTHIC THERAPEUTICS, published 2025) are described below.

The target in this test is T1, Human LRRC15 Protein, His Tag (Acro Biosystems) (human, UniProt Q8TF66 22-538, limits assumed).
T1 construct: not shown: His tag
T1 sequence (looked up): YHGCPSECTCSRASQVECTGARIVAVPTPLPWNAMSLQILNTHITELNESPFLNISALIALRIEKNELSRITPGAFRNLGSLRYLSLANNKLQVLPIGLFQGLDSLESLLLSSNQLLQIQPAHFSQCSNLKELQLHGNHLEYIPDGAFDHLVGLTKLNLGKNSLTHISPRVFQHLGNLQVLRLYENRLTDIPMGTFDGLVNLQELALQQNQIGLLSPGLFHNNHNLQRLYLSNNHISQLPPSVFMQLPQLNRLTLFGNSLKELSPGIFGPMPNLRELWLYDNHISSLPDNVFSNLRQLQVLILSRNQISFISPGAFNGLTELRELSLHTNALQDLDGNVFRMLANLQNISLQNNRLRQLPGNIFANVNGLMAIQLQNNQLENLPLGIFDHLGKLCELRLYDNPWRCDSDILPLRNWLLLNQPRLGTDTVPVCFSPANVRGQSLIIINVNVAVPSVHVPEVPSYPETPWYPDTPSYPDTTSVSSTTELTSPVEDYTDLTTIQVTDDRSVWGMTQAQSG
As to the kind of experiment: BLI (Octet), Ab on anti-human Fc sensor, LRRC15 associated at pH 7.4. Here is the method: For each individual plot, antigen binding proteins were captured on anti-human Fc biosensors and associated with LRRC15 at pH 7.4. Dissociation was at pH 7.4 (black) or pH 5.4 (grey). Major X-axis ticks=100 seconds, with left dashed vertical line=0 seconds. Major Y-axis ticks=0.5 nm and octet plots are shown MYT5712 and MYT6080-MYT6121.
After allowing for a period of protein expression, cell culture supernatants are collected, quantified, and the pH dependence of the variant is evaluated using biolayer interferometry (BLI) or other methods known to the art. Briefly, cell culture supernatants are normalized to an antibody expression level of 50 μg/mL, and captured on an anti-human Fc sensor (Forte Bio). A baseline is established using 1× kinetics buffer (Forte Bio), and the sensor is associated with 100 nM of LRRC15 in 1×PBS at pH 7.4 for 300 sec to generate an association curve. In the dissociation phase, the antibody-antigen complex on the sensor is exposed to 1×PBS at either pH 5.5 or pH 7.4 for 300-500 sec. […]
Background: Biolayer interferometry detects binding as a change in optical thickness at a sensor tip.

B1: MYT8511 (antibody, V domains shown)
VH: QQQLVESGGGLVKPGASLTLTCKASGHHFSGSYWICWVRQAPGKGLEWIGCHNGGSLDITYYASWAKGRFTISKASSTTVTLQKTSLTAADTATYFCASDTSYTAYGNFYFNLWGPGTLVTVSS
VL: AQVLTQTASPVSAAVGGTVTINCQSSQSVLNNNWLAWYQQKPGQPPKLLIYDASSLASGVPSRFKGSGSGTQFTLTISDLESDDAATYYCQGEFSCGSADCNAFGGGTEVVVKG
notes: Rabbit 24D9 VH combination variant; also called 24D9 VH combo F27H, S28H, I52H
Consider B1, for which the binding result is given as “no binding (tested: 50 nM)”.
